{"source": "paper PMC3597794", "target": "HsiB1C1 complex (P. aeruginosa PAO1)", "assay": "negative stain electron microscopy", "note": "“And” between values parts separate entries of the source, which are not always exact repeats. Identical values can stand only once."}
{"substance": "HsiB1C1 complex", "values": [{"measurement": "stoichiometry N", "result": "12 and 13"}]}
